According to the supplement of paper PMC10567573:

B1: ZER1 (parent)
chain: KEMARKVIEHCSNFKEENMDTSR

Variants of: B1
Experiment: protein stability index of a GFP-peptide fusion (GPS, HEK-293T) (PSI 1-6); higher = more stable
Conditions: c terminus: native
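Also: lentivirally expressed fusions sorted by FACS into six bins by GFP to DsRed ratio, PSI derived from sequencing read proportions per bin multiplied by bin number.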

Row | Variant | protein stability index
1 | S22N | 4.12
2 | S22A | 2.64
3 | S22T | 4.42
4 | S22P | 4.29
5 | S22M | 3.43
6 | S22H | 3.09
7 | S22Y | 3.76
8 | S12R | 3.25
9 | S12G | 4.21
10 | S12Q | 3.55
11 | S12W | 2.63
12 | S12E | 3.85
13 | R23M | 4.6
14 | R23C | 4.72
15 | R23K | 5.27
16 | R23A | 4.67
17 | R23H | 5.07
18 | K15I | 3.5
19 | K15P | 4.08
20 | K15V | 3.9
21 | K15D | 4.24
22 | K15S | 3.34
23 | K15L | 3.13
24 | M3H | 4.05

Row | Variant | protein stability index
25 | M3D | 4.86
26 | M3V | 4.22
27 | M3A | 4.49
28 | M3I | 3.29
29 | M3R | 3.98
30 | M3Q | 4.45
31 | M3S | 4.64
32 | M3Y | 3.29
33 | K1Y | 3.31
34 | K1A | 3.7
35 | K1N | 4.24
36 | K1V | 3.26
37 | K1H | 4.3
38 | K1I | 2.95
39 | K1P | 3.36
40 | K1W | 2.98
41 | E2G | 2.82
42 | E2N | 3.4
43 | E2L | 2.76
44 | E2F | 2.11
45 | E2Y | 2.35
46 | E2V | 3.52
47 | E2M | 3.42
48 | E2S | 2.74

Row | Variant | protein stability index
49 | C11S | 3.96
50 | C11M | 2.58
51 | C11R | 4.48
52 | C11P | 4.83
53 | C11W | 2.19
54 | C11F | 1.38
55 | C11L | 2.59
56 | E9K | 4.37
57 | E9P | 4.58
58 | E9L | 2.64
59 | E9W | 1.55
60 | E9G | 4.29
61 | E9D | 4.11
62 | E9Y | 3.16
63 | E9H | 3.92
64 | E9C | 4.04
65 | E9I | 3.03
66 | T21F | 3.84
67 | T21E | 4.98
68 | T21K | 1.68
69 | T21C | 3.39
70 | T21H | 2.18
71 | T21A | 4.09
72 | T21I | 3.16

Row | Variant | protein stability index
73 | T21V | 3.1
74 | T21P | 4.17
75 | R5M | 3.13
76 | R5I | 2.83
77 | R5Y | 2.68
78 | R5G | 3.65
79 | R5C | 3.76
80 | R5K | 4.15
81 | R5H | 3.72
82 | R5A | 4.4
83 | R5N | 4.01
84 | H10S | 3.57
85 | H10E | 3.69
86 | H10T | 3.98
87 | H10G | 4.56
88 | H10D | 4.06
89 | H10P | 5.17
90 | H10N | 4.29
91 | I8R | 4.33
92 | I8D | 5.19
93 | I8T | 4.4
94 | I8C | 4.42
95 | I8Q | 4.67
96 | I8A | 4.58

Row | Variant | protein stability index
97 | D20N | 4.59
98 | D20M | 1.91
99 | D20Q | 2.23
100 | D20W | 2.5
101 | D20P | 2.46
102 | D20F | 2.98
103 | D20G | 2.68
104 | D20S | 2.46
105 | D20E | 2.51
106 | D20R | 2.13
107 | D20T | 2.99
108 | D20A | 1.63
109 | N13E | 3.69
110 | N13S | 3.33
111 | N13L | 1.92
112 | N13V | 3.05
113 | N13K | 3.85
114 | N13W | 2.4
115 | N13A | 3.28
116 | N13P | 3.32
117 | N18A | 3.34
118 | N18H | 3.47
119 | N18C | 3.3
120 | N18V | 3.46

Row | Variant | protein stability index
121 | N18W | 3.6
122 | N18G | 4.02
123 | N18F | 3.07
124 | N18L | 2.91
125 | N18Q | 3.6
126 | K6D | 4.19
127 | K6F | 1.72
128 | A4D | 4.48
129 | A4F | 1.9
130 | A4V | 2.59
131 | A4L | 2.23
132 | A4S | 4.13
133 | A4T | 3.94
134 | E16C | 3.17
135 | E16L | 2.52
136 | E16M | 2.68
137 | E16I | 2.45
138 | E16G | 3.83
139 | E16T | 3.1
140 | E16V | 3.43
141 | E16Q | 3.14
142 | M19W | 3.64
143 | M19F | 3.94
144 | M19Y | 3.71

Row | Variant | protein stability index
145 | M19N | 4.29
146 | M19R | 3.62
147 | M19Q | 3.87
148 | V7E | 5.27
149 | V7W | 3.19
150 | V7M | 2.44
151 | V7D | 5.26
152 | V7A | 4.87
153 | V7N | 5.1
154 | V7H | 1.52
155 | E17K | 2.84
156 | E17P | 2.93
157 | E17G | 3.4
158 | E17W | 2.2
159 | E17H | 2.83
160 | E17C | 2.68
161 | F14C | 3.91
162 | F14R | 4.55
163 | F14W | 3.33
164 | F14H | 4.8
165 | F14T | 4.46
166 | F14E | 4.78
167 | F14V | 4.94
